The target in one assay is T1, O9-bP.
T1 chain: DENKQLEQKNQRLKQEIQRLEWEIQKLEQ
In words: two-hybrid library CCNG1.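 Also: natural log of median RNA to DNA barcode read ratio; higher means stronger binding.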

The target in the next assay is T2, O6-bP.
T2 chain: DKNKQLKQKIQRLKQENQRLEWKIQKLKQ
Nature of the assay: two-hybrid library CCNG1.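 Also: natural log of median RNA to DNA barcode read ratio; higher means stronger binding.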

The next assay deals with T3, O5-bP.
T3 chain: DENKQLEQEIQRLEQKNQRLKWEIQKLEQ
In words: two-hybrid library CCNG1.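 Also: natural log of median RNA to DNA barcode read ratio; higher means stronger binding.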

The target in the next assay is T4, O8-bP.
T4 chain: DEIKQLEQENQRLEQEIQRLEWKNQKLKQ
Nature of the assay: two-hybrid library CCNG1.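 Also: natural log of median RNA to DNA barcode read ratio; higher means stronger binding.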

The next assay addresses T5, O4-bP.
T5 chain: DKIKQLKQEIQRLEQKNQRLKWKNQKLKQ
In words: two-hybrid library CCNG1.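 Also: natural log of median RNA to DNA barcode read ratio; higher means stronger binding.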

The next assay concerns the target T6, O7-bP.
T6 chain: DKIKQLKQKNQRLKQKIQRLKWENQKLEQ
Nature of the assay: two-hybrid library CCNG1.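 Also: natural log of median RNA to DNA barcode read ratio; higher means stronger binding.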

Another assay deals with T7, P2-AA-1HAA-D.
T7 chain: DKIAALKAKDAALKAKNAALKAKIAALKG
In words: two-hybrid library CCmax.

The target in a further assay is T8, P2-AA-1HAA-E.
T8 chain: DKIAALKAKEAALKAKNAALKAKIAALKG
In words: two-hybrid library CCmax. Particulars: mean of both orientations.

In the next assay the target is T9, P2-AA-1HAA-I.
T9 chain: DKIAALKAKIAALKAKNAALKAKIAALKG
In words: two-hybrid library CCmax. Particulars: mean of both orientations.

In another assay the target is T10, P2-AA-1HAA-V.
T10 chain: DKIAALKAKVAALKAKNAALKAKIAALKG
In words: two-hybrid library CCmax. Particulars: mean of both orientations.

Another assay addresses T11, P2-AA-1HAA-T.
T11 chain: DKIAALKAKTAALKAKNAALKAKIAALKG
Nature of the assay: two-hybrid library CCmax. Particulars: mean of both orientations.

A further assay concerns the target T12, P2-AA-1HAA-S.
T12 chain: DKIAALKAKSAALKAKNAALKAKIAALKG
Nature of the assay: two-hybrid library CCmax. The settings on record: mean of both orientations.

A further assay addresses T13, P2-AA-1HAA-R.
T13 chain: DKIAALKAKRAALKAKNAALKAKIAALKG
In words: two-hybrid library CCmax. The settings on record: mean of both orientations.

A further assay concerns the target T14, P9A-bA.
T14 chain: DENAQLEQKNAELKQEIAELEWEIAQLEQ
Nature of the assay: two-hybrid library CCNG1.

In the next assay the target is T15, P8A-bA.
T15 chain: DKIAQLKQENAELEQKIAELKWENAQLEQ
In words: two-hybrid library CCNG1.

A further assay addresses T16, P7A-bA.
T16 chain: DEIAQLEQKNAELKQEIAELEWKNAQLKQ
In words: two-hybrid library CCNG1.

For the next assay, the target named is T17, 4H492-bN.
T17 chain: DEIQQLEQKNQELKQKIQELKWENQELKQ
Nature of the assay: two-hybrid library CCNG1.

The target of another assay is T18, 4H3926-bN.
T18 chain: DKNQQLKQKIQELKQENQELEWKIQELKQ
Nature of the assay: two-hybrid library CCNG1.

The target of the next assay is T19, 4H477-bN.
T19 chain: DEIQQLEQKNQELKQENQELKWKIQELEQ
In words: two-hybrid library CCNG1.

A further assay deals with T20, 4H3628-bN.
T20 chain: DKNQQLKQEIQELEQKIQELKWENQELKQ
In words: two-hybrid library CCNG1.

For the next assay, the target named is T21, 4H3298-bN.
T21 chain: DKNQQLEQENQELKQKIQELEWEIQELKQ
In words: two-hybrid library CCNG1.

For the next assay, the target named is T22, 4H754-bN.
T22 chain: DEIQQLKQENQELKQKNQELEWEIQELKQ
In words: two-hybrid library CCNG1.

Another assay has as its target T23, 4H906-bN.
T23 chain: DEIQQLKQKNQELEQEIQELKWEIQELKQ
In words: two-hybrid library CCNG1.

In the next assay the target is T24, 4H3497-bN.
T24 chain: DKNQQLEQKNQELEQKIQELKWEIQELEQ
Nature of the assay: two-hybrid library CCNG1.

For another assay, the target named is T25, 4H348-bN.
T25 chain: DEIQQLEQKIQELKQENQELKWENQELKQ
In words: two-hybrid library CCNG1.

For another assay, the target named is T26, 4H40-bN.
T26 chain: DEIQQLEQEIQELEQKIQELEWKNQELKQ
In words: two-hybrid library CCNG1.

In the next assay the target is T27, 4H3277-bN.
T27 chain: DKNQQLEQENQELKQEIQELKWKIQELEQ
Nature of the assay: two-hybrid library CCNG1.

Another assay has as its target T28, 4H741-bN.
T28 chain: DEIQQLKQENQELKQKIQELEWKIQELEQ
In words: two-hybrid library CCNG1.

The next assay addresses T29, 4H3462-bN.
T29 chain: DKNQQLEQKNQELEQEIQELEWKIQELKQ
In words: two-hybrid library CCNG1.

In another assay the target is T30, 4H3613-bN.
T30 chain: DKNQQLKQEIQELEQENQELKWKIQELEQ
Nature of the assay: two-hybrid library CCNG1.

A further assay concerns the target T31, 4H591-bN.
T31 chain: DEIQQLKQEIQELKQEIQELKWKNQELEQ
Nature of the assay: two-hybrid library CCNG1.

In the next assay the target is T32, 4H626-bN.
T32 chain: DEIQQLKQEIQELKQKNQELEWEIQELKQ
In words: two-hybrid library CCNG1.

For the next assay, the target named is T33, 4H780-bA.
T33 chain: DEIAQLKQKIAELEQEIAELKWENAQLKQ
In words: two-hybrid library CCNG1.

The target of the next assay is T34, 4H754-bA.
T34 chain: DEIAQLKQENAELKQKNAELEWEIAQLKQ
Nature of the assay: two-hybrid library CCNG1.

Another assay concerns the target T35, 4H918-bA.
T35 chain: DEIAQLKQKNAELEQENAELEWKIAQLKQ
In words: two-hybrid library CCNG1.

A further assay deals with T36, 4H968-bA.
T36 chain: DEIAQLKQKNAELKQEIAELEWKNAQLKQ
In words: two-hybrid library CCNG1.

The next assay addresses T37, 4H575-bA.
T37 chain: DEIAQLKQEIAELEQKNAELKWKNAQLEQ
Nature of the assay: two-hybrid library CCNG1.

The target in a further assay is T38, 4H953-bA.
T38 chain: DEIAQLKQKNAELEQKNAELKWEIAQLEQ
In words: two-hybrid library CCNG1.

The target in another assay is T39, 4H797-bA.
T39 chain: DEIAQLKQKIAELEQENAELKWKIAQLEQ
Nature of the assay: two-hybrid library CCNG1.

For another assay, the target named is T40, 4H855-bA.
T40 chain: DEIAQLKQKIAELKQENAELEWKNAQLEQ
Nature of the assay: two-hybrid library CCNG1.

For the next assay, the target named is T41, 4H683-bA.
T41 chain: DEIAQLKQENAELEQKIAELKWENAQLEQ
In words: two-hybrid library CCNG1.

The target of another assay is T42, P2-AA.
T42 chain: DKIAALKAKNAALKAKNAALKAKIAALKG
Nature of the assay: two-hybrid library CCmax. Particulars: mean of both orientations.

Read-outs that look alike come from different tables or passages of the source.

Results on nine molecules are retold here after paper PMC10397247.

B1: O4-bP (peptide)
chain: DKIKQLKQEIQRLEQKNQRLKWKNQKLKQ
In the case of B1, the interaction score was -0.425 with O9-bP; -0.676 with O6-bP; -0.998 with O5-bP; -2.5 with O8-bP; -0.959 in the assay with O4-bP; -0.866 with O7-bP.

B2: P1-AA-1HAA-K (peptide)
chain: DEIAALEAEKAALEAENAALEAEIAALEG
Consider B2, for which the interaction score was found to be 0.24 with P2-AA-1HAA-D (mean of both orientations); 0.472 with P2-AA-1HAA-E; 1.82 with P2-AA-1HAA-I; 2.1 in the assay with P2-AA-1HAA-V; 2.06 in the assay with P2-AA-1HAA-T; 1.97 with P2-AA-1HAA-S. The interaction score in the assay with P2-AA-1HAA-R was determined as 1.56.

B3: P6A-bA (peptide)
chain: DKNAQLKQEIAELEQENAELEWKIAQLKQ
In the case of B3, the interaction score with P9A-bA is -1.98; in the assay with P8A-bA it was 0.137; with P7A-bA, 0.285.

B4: P1-AA-1HAA-H (peptide)
chain: DEIAALEAEHAALEAENAALEAEIAALEG
In the case of B4, the interaction score with P2-AA-1HAA-D turned out to be 1.5; with P2-AA-1HAA-E, 0.913; in the assay with P2-AA-1HAA-I, 1.98; with P2-AA-1HAA-V, 1.33; with P2-AA-1HAA-T it was 2.13; in the assay with P2-AA-1HAA-S it was 1.91. The interaction score with P2-AA-1HAA-R was 1.34.

B5: 4H3277-bN (peptide)
chain: DKNQQLEQENQELKQEIQELKWKIQELEQ
For B5, the interaction score with 4H492-bN was -1.45; with 4H3926-bN it was -0.4; with 4H477-bN, -1.11; with 4H3628-bN it was -0.458; in the assay with 4H3298-bN, -0.281; with 4H754-bN, -1.54. Also, the interaction score with 4H906-bN was -1.79; in the assay with 4H3497-bN, -0.895; in the assay with 4H348-bN it was -1.89; in the assay with 4H40-bN it was 0.44; in the assay with 4H3277-bN, 1.19; with 4H741-bN, -0.405. For the same molecule, the interaction score is -1 with 4H3462-bN, -1.08 with 4H3613-bN, -1.66 in the assay with 4H591-bN and -0.819 with 4H626-bN.

B6: P7A-bA (peptide)
chain: DEIAQLEQKNAELKQEIAELEWKNAQLKQ
As to B6, the interaction score with P9A-bA is -0.632; with P8A-bA, 1.79; in the assay with P7A-bA, -0.889.

B7: 4H575-bA (peptide)
chain: DEIAQLKQEIAELEQKNAELKWKNAQLEQ
For the molecule B7, the interaction score in the assay with 4H780-bA was -1.33; with 4H754-bA, -0.786; in the assay with 4H918-bA it was 0.24; with 4H968-bA, -0.872; with 4H575-bA, -0.354; in the assay with 4H953-bA, -0.885. Moreover, the interaction score was -1.17 in the assay with P7A-bA, -0.567 with 4H797-bA, 1.12 in the assay with 4H855-bA and -0.37 in the assay with 4H683-bA.

B8: P1-AA-1HAA-S (peptide)
chain: DEIAALEAESAALEAENAALEAEIAALEG
Turning to B8, the interaction score with P2-AA-1HAA-D (mean of both orientations) was 1.28; in the assay with P2-AA, 2.06; with P2-AA-1HAA-E, 1.97; with P2-AA-1HAA-I, 2.17; in the assay with P2-AA-1HAA-V, 2; in the assay with P2-AA-1HAA-T it was 1.87. Further, the values for the interaction score in the assay with P2-AA-1HAA-S and in the assay with P2-AA-1HAA-R were 1.18 and 2.17, respectively.

B9: P1-AA-1HAA-A (peptide)
chain: DEIAALEAEAAALEAENAALEAEIAALEG
For the molecule B9, the interaction score with P2-AA-1HAA-D (mean of both orientations) came to 1.87; with P2-AA it was 2.29; with P2-AA-1HAA-E, 1.86; with P2-AA-1HAA-I, 2.26; in the assay with P2-AA-1HAA-V, 2.11; in the assay with P2-AA-1HAA-T it was 1.64. Further, the interaction score stood at 2 with P2-AA-1HAA-S and 1.48 with P2-AA-1HAA-R.
